Measurements taken from patent publication US20240279325A1 (Chugai, published 2024).

T1: human FcγRIIb extracellular domain with C-terminal His tag (human, UniProt P31994 43-217)
T1 construct: extracellular domain; not shown: His tag at the C terminus
T1 sequence (looked up): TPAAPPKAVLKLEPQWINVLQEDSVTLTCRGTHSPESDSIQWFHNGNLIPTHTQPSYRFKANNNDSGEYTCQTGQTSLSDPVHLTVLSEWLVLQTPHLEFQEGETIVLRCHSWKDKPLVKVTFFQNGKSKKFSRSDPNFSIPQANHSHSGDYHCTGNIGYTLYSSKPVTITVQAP


Columns and labels:
[1] = target: T1, human FcγRIIb extracellular domain with …; experiment: SPR (Biacore); parent is IL6R-B3/IL6R-L
[2] = target: T1, human FcγRIIb extracellular domain with …; experiment: ratio of SPR KDs, FcγRIIaH over FcγRIIb
[3] = target: T1, human FcγRIIb extracellular domain with …; experiment: ratio of SPR KDs, FcγRIIaR over FcγRIIb
[4] = target: T2, human FcγRIa extracellular domain with C-terminal His tag (human, UniProt P12314 16-292); experiment: SPR (Biacore), antibody captured, FcγR analyte
T2 construct: not shown: His tag at the C terminus
T2 sequence (P12314 16-292): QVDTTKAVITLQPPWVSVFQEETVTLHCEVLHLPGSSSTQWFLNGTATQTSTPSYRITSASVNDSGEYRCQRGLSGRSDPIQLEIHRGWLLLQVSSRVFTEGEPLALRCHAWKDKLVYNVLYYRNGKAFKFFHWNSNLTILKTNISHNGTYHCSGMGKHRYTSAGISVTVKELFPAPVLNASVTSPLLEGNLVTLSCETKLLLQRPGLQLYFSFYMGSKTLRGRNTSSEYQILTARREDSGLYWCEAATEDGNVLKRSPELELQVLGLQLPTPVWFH

[5] = target: T3, human FcγRIIIa type V (allotype V158) extracellular domain with C-terminal His tag (human, UniProt P08637 17-208); experiment: SPR (Biacore), antibody captured, FcγR analyte
T3 construct: extracellular domain; also called FcγRIIIaV; FcγRIIIa V type; not shown: His tag at the C terminus
T3 sequence (P08637 17-208 F176V): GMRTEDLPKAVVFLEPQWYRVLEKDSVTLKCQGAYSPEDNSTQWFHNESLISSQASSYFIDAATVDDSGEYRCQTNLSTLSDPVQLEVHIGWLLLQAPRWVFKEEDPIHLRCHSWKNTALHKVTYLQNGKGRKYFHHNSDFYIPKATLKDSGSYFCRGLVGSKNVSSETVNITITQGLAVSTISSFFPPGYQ

| KD(IIb) of the parent polypeptide/KD(IIb) of altered polypeptide [1] [fold] | KD(IIaH)/KD(IIb) [2] | KD(IIaR)/KD(IIb) [3] | Kd [4] [µM] | Kd [5] [µM] | Binder |
| --- | --- | --- | --- | --- | --- |
| 15.7 | 102 | 11 |  |  | IL6R-BP198/IL6R-L (antibody, human IgG1, kappa, name in EU numbering, EU numbering; copies: 2 + 2) heavy: QVQLQESGPGLVKPSETLSLTCAVSGHSISHDHAWSWVRQPPGEGLEWIGFISYSGITNYNPSLQGRVTISRDNSKNTLYLQMNSLRAEDTAVYYCARSLARTTAMDYWGEGTLVTVSSASTKGPSVFPLAPSSKSTSGGTAALGCLVKDYFPEPVTVSWNSGALTSGVHTFPAVLQSSGLYSLSSVVTVPSSSLGTQTYICNVNHKPSNTKVDKKVEPKSCDKTHTCPPCPAPDYLGGDSVFLFPPKPKDTLMISRTPEVTCVVVDVSDEDGEVKFNWYVDGVEVHNAKTKPREEQYNSTYRVVSVLTVLHQDWLNGKEYKCKVSNAALPKPIEKTISKAKGQPREPQVYTLPPSRDELTKNQVSLTCLVKGFYPSDIAVEWESNGQPENNYKTTPPVLDSDGSFFLYSKLTVDKSRWQQGNVFSCSVMHEALHNHYTQESLSLSP light: not shown |
| 62.3 | 201 | 18.2 | 0.026 |  | IL6R-BP195/IL6R-L (antibody, human IgG1, kappa, name in EU numbering, EU numbering; copies: 2 + 2) heavy: QVQLQESGPGLVKPSETLSLTCAVSGHSISHDHAWSWVRQPPGEGLEWIGFISYSGITNYNPSLQGRVTISRDNSKNTLYLQMNSLRAEDTAVYYCARSLARTTAMDYWGEGTLVTVSSASTKGPSVFPLAPSSKSTSGGTAALGCLVKDYFPEPVTVSWNSGALTSGVHTFPAVLQSSGLYSLSSVVTVPSSSLGTQTYICNVNHKPSNTKVDKKVEPKSCDKTHTCPPCPAPDYLGDDSVFLFPPKPKDTLMISRTPEVTCVVVDVSDEDGEVKFNWYVDGVEVHNAKTKPREEQDNSTYRVVSVLTVLHQDWLNGKEYKCKVSNAALPKPIEKTISKAKGQPREPQVYTLPPSRDELTKNQVSLTCLVKGFYPSDIAVEWESNGQPENNYKTTPPVLDSDGSFFLYSKLTVDKSRWQQGNVFSCSVMHEALHNHYTQESLSLSP light: not shown |
|  |  |  |  | 40 | IL6R-BP231/IL6R-L (antibody, human IgG1, kappa, name in EU numbering, EU numbering; copies: 2 + 2) heavy: QVQLQESGPGLVKPSETLSLTCAVSGHSISHDHAWSWVRQPPGEGLEWIGFISYSGITNYNPSLQGRVTISRDNSKNTLYLQMNSLRAEDTAVYYCARSLARTTAMDYWGEGTLVTVSSASTKGPSVFPLAPSSKSTSGGTAALGCLVKDYFPEPVTVSWNSGALTSGVHTFPAVLQSSGLYSLSSVVTVPSSSLGTQTYICNVNHKPSNTKVDKKVEPKSCDKTHTCPPCPAPELLGDDSVFLFPPKPKDTLMISRTPEVTCVVVDVSDEDGEVKFNWYVDGVEVHNAKTKPREEQDNSTYRVVSVLTVLHQDWLNGKEYKCKVSNKALPRPIEKTISKAKGQPREPQVYTLPPSRDELTKNQVSLTCLVKGFYPSDIAVEWESNGQPENNYKTTPPVLDSDGSFFLYSKLTVDKSRWQQGNVFSCSVMHEALHNHYTQESLSLSP light: not shown |
|  |  |  |  | 60 | IL6R-BP217/IL6R-L (antibody, human IgG1, kappa, name in EU numbering, EU numbering; copies: 2 + 2) heavy: QVQLQESGPGLVKPSETLSLTCAVSGHSISHDHAWSWVRQPPGEGLEWIGFISYSGITNYNPSLQGRVTISRDNSKNTLYLQMNSLRAEDTAVYYCARSLARTTAMDYWGEGTLVTVSSASTKGPSVFPLAPSSKSTSGGTAALGCLVKDYFPEPVTVSWNSGALTSGVHTFPAVLQSSGLYSLSSVVTVPSSSLGTQTYICNVNHKPSNTKVDKKVEPKSCDKTHTCPPCPAPELLGDDSVFLFPPKPKDTLMISRTPEVTCVVVDVQDEDGEVKFNWYVDGVEVHNAKTKPREEQDNSTYRVVSVLTVLHQDWLNGKEYKCKVSNKALPKPIEKTISKAKGQPREPQVYTLPPSRDELTKNQVSLTCLVKGFYPSDIAVEWESNGQPENNYKTTPPVLDSDGSFFLYSKLTVDKSRWQQGNVFSCSVMHEALHNHYTQESLSLSP light: not shown |
